Measurements from patent US20220204580A1 (AstraZeneca / MedImmune, published 2022).
Each block holds one binder with its values, some of them ahead of it. Numbered stars: 1 amine (or outer) side, 2 acyl side, 3 side chain; on linkers, the order of the positions; unused ones are H or OH. Bridge positions count the residues as written; N and C are the ends. Square brackets hold non-standard residues; d marks the D form. Side chains are listed from the residue outwards. Ends that are not written are not given here. * marks the point of attachment. C18 diacid = O=C(O)CCCCCCCCCCCCCCCCC(=O)*; γGlu = O=C(O)[C@H](CCC(=O)[*:2])N[*:1]; Aib = CC(C)(N)C(=O)O

Experiments:
[1] = target: T1, human calcitonin receptor (human, UniProt P30988 25-474); assay: cell-based or functional assay
T1 sequence (looked up): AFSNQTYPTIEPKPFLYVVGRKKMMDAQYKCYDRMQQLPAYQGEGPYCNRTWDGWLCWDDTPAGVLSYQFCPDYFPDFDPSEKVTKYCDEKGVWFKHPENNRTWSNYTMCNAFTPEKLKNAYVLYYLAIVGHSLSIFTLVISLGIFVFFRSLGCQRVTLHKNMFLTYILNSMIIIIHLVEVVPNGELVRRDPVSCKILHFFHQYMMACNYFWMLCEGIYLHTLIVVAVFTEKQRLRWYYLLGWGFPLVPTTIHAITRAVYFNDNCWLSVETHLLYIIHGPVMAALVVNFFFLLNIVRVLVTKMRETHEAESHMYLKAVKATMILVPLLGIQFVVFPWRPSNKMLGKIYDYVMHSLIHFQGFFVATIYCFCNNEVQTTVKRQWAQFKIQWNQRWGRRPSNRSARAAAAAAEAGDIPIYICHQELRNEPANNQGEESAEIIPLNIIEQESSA

[2] = target: T2, human amylin receptor (calcitonin receptor co-expressed with receptor activity modifying protein, RAMP3) (human, UniProt P30988 25-474; O60896 24-148); assay: cell-based or functional assay
T2 sequence (looked up) 1: T1 sequence (looked up)
T2 sequence (looked up) 2: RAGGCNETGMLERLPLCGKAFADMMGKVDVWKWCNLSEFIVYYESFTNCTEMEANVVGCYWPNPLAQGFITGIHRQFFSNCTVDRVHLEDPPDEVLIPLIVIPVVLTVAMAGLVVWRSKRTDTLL

- EC50 (cAMP production) [1]: 3.95 nM
- EC50 (cAMP production) [2]: 0.414 nM
- Ratio (EC50 hCTR / EC50 hAMYR3) [2]: 9.5
B1: Peptide 141 (SEQ ID NO: 141) (peptide)
peptide: K([γGlu-C18 diacid])KCNTATCATQRLANFL[Aib]HSSNNFGPILPPTNVGSRTY-NH2
modifications: disulfide 3-8; N-terminus assumed
SMILES: CC[C@H](C)[C@H](NC(=O)[C@@H]1CCCN1C(=O)CNC(=O)[C@H](Cc1ccccc1)NC(=O)[C@H](CC(N)=O)NC(=O)[C@H](CC(N)=O)NC(=O)[C@H](CO)NC(=O)[C@H](CO)NC(=O)[C@H](Cc1c[nH]cn1)NC(=O)C(C)(C)NC(=O)[C@H](CC(C)C)NC(=O)[C@H](Cc1ccccc1)NC(=O)[C@H](CC(N)=O)NC(=O)[C@H](C)NC(=O)[C@H](CC(C)C)NC(=O)[C@H](CCCNC(=N)N)NC(=O)[C@H](CCC(N)=O)NC(=O)[C@@H](NC(=O)[C@H](C)NC(=O)[C@@H]1CSSC[C@H](NC(=O)[C@H](CCCCN)NC(=O)[C@@H](N)CCCCNC(=O)CC[C@H](NC(=O)CCCCCCCCCCCCCCCCC(=O)O)C(=O)O)C(=O)N[C@@H](CC(N)=O)C(=O)N[C@@H]([C@@H](C)O)C(=O)N[C@@H](C)C(=O)N[C@@H]([C@@H](C)O)C(=O)N1)[C@@H](C)O)C(=O)N[C@@H](CC(C)C)C(=O)N1CCC[C@H]1C(=O)N1CCC[C@H]1C(=O)N[C@H](C(=O)N[C@@H](CC(N)=O)C(=O)N[C@H](C(=O)NCC(=O)N[C@@H](CO)C(=O)N[C@@H](CCCNC(=N)N)C(=O)N[C@H](C(=O)N[C@@H](Cc1ccc(O)cc1)C(N)=O)[C@@H](C)O)C(C)C)[C@@H](C)O

- EC50 (cAMP production) [1]: 2.27 nM
- EC50 (cAMP production) [2]: 0.73 nM
- Ratio (EC50 hCTR / EC50 hAMYR3) [2]: 3.1
B2: Peptide 142 (SEQ ID NO: 142) (peptide)
peptide: K([γGlu-C18 diacid])KCNTATCATQRLANFL[Aib]HSSNNFGPILPPTNVGSETY-NH2
modifications: disulfide 3-8; N-terminus assumed
SMILES: CC[C@H](C)[C@H](NC(=O)[C@@H]1CCCN1C(=O)CNC(=O)[C@H](Cc1ccccc1)NC(=O)[C@H](CC(N)=O)NC(=O)[C@H](CC(N)=O)NC(=O)[C@H](CO)NC(=O)[C@H](CO)NC(=O)[C@H](Cc1c[nH]cn1)NC(=O)C(C)(C)NC(=O)[C@H](CC(C)C)NC(=O)[C@H](Cc1ccccc1)NC(=O)[C@H](CC(N)=O)NC(=O)[C@H](C)NC(=O)[C@H](CC(C)C)NC(=O)[C@H](CCCNC(=N)N)NC(=O)[C@H](CCC(N)=O)NC(=O)[C@@H](NC(=O)[C@H](C)NC(=O)[C@@H]1CSSC[C@H](NC(=O)[C@H](CCCCN)NC(=O)[C@@H](N)CCCCNC(=O)CC[C@H](NC(=O)CCCCCCCCCCCCCCCCC(=O)O)C(=O)O)C(=O)N[C@@H](CC(N)=O)C(=O)N[C@@H]([C@@H](C)O)C(=O)N[C@@H](C)C(=O)N[C@@H]([C@@H](C)O)C(=O)N1)[C@@H](C)O)C(=O)N[C@@H](CC(C)C)C(=O)N1CCC[C@H]1C(=O)N1CCC[C@H]1C(=O)N[C@H](C(=O)N[C@@H](CC(N)=O)C(=O)N[C@H](C(=O)NCC(=O)N[C@@H](CO)C(=O)N[C@@H](CCC(=O)O)C(=O)N[C@H](C(=O)N[C@@H](Cc1ccc(O)cc1)C(N)=O)[C@@H](C)O)C(C)C)[C@@H](C)O

- EC50 (cAMP production) [1]: 1.04 nM
- EC50 (cAMP production) [2]: 0.285 nM
- Ratio (EC50 hCTR / EC50 hAMYR3) [2]: 3.7
B3: Peptide 139 (SEQ ID NO: 139) (peptide)
peptide: K([γGlu-C18 diacid])KCNTATCATQRLANFL[Aib]HSSPNFGPILPPTNVGSETY-NH2
modifications: disulfide 3-8; N-terminus assumed
SMILES: CC[C@H](C)[C@H](NC(=O)[C@@H]1CCCN1C(=O)CNC(=O)[C@H](Cc1ccccc1)NC(=O)[C@H](CC(N)=O)NC(=O)[C@@H]1CCCN1C(=O)[C@H](CO)NC(=O)[C@H](CO)NC(=O)[C@H](Cc1c[nH]cn1)NC(=O)C(C)(C)NC(=O)[C@H](CC(C)C)NC(=O)[C@H](Cc1ccccc1)NC(=O)[C@H](CC(N)=O)NC(=O)[C@H](C)NC(=O)[C@H](CC(C)C)NC(=O)[C@H](CCCNC(=N)N)NC(=O)[C@H](CCC(N)=O)NC(=O)[C@@H](NC(=O)[C@H](C)NC(=O)[C@@H]1CSSC[C@H](NC(=O)[C@H](CCCCN)NC(=O)[C@@H](N)CCCCNC(=O)CC[C@H](NC(=O)CCCCCCCCCCCCCCCCC(=O)O)C(=O)O)C(=O)N[C@@H](CC(N)=O)C(=O)N[C@@H]([C@@H](C)O)C(=O)N[C@@H](C)C(=O)N[C@@H]([C@@H](C)O)C(=O)N1)[C@@H](C)O)C(=O)N[C@@H](CC(C)C)C(=O)N1CCC[C@H]1C(=O)N1CCC[C@H]1C(=O)N[C@H](C(=O)N[C@@H](CC(N)=O)C(=O)N[C@H](C(=O)NCC(=O)N[C@@H](CO)C(=O)N[C@@H](CCC(=O)O)C(=O)N[C@H](C(=O)N[C@@H](Cc1ccc(O)cc1)C(N)=O)[C@@H](C)O)C(C)C)[C@@H](C)O

- EC50 (cAMP production) [1]: 6.94 nM
- EC50 (cAMP production) [2]: 0.592 nM
- Ratio (EC50 hCTR / EC50 hAMYR3) [2]: 11.7
B4: Peptide 143 (SEQ ID NO: 143) (peptide)
peptide: K([γGlu-C18 diacid])GGKCNTATCATQRLANFL[Aib]HSSNNFGPILPPTNVGSNTY-NH2
modifications: disulfide 5-10; N-terminus assumed
SMILES: CC[C@H](C)[C@H](NC(=O)[C@@H]1CCCN1C(=O)CNC(=O)[C@H](Cc1ccccc1)NC(=O)[C@H](CC(N)=O)NC(=O)[C@H](CC(N)=O)NC(=O)[C@H](CO)NC(=O)[C@H](CO)NC(=O)[C@H](Cc1c[nH]cn1)NC(=O)C(C)(C)NC(=O)[C@H](CC(C)C)NC(=O)[C@H](Cc1ccccc1)NC(=O)[C@H](CC(N)=O)NC(=O)[C@H](C)NC(=O)[C@H](CC(C)C)NC(=O)[C@H](CCCNC(=N)N)NC(=O)[C@H](CCC(N)=O)NC(=O)[C@@H](NC(=O)[C@H](C)NC(=O)[C@@H]1CSSC[C@H](NC(=O)[C@H](CCCCN)NC(=O)CNC(=O)CNC(=O)[C@@H](N)CCCCNC(=O)CC[C@H](NC(=O)CCCCCCCCCCCCCCCCC(=O)O)C(=O)O)C(=O)N[C@@H](CC(N)=O)C(=O)N[C@@H]([C@@H](C)O)C(=O)N[C@@H](C)C(=O)N[C@@H]([C@@H](C)O)C(=O)N1)[C@@H](C)O)C(=O)N[C@@H](CC(C)C)C(=O)N1CCC[C@H]1C(=O)N1CCC[C@H]1C(=O)N[C@H](C(=O)N[C@@H](CC(N)=O)C(=O)N[C@H](C(=O)NCC(=O)N[C@@H](CO)C(=O)N[C@@H](CC(N)=O)C(=O)N[C@H](C(=O)N[C@@H](Cc1ccc(O)cc1)C(N)=O)[C@@H](C)O)C(C)C)[C@@H](C)O
